# Results published in the nanobody polyreactivity screen of Harvey et al. (2022).
# Experiment: yeast display, Sf9 membrane polyspecificity reagent, FACS + sequencing; frameworks hold sequencing errors
# Procedure, shortened: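 A nanobody's polyreactivity label depends on the gate it was sorted from. Yeast display cells were stained with 10% biotinylated, detergent-solubilized Sf9 membrane reagent for 1 hour at 4 °C, enriched on streptavidin microbeads and sorted by FACS. The low and high (top ~1%) gates were set on anti-HA fluorescence for expression and streptavidin fluorescence for reagent binding.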
row,Sequence,polyreactivity (PSR sort gate)
1,QVQLVESGGGLVQAGGSLRLSCAASGITFEDYAMGWYRQAPGKERELVAAISWSGDITYYADSVKGRFTISRDNAKNTVYLQMNSLKPVDTAVYYCAADLSPYGYDYWGQGTQVTVSS,low polyreactivity
2,QVQLVETGGRKVQPGGSLRLSCAASRRTFDHNAMGWYRQAPGKERELVAAITWSGGITDYADSVKRPFTISRDNAKNTVYLEMFSLKPEDTAVWGQGTQVSVSS,low polyreactivity
3,QVQLVESGGGLVQAGGSLRLSCAASGSTFKINALGWYIQAPGKERELVALIRASGASTYYADSVKGRFTISRDNAKKTVYLRMNILKPEDTAVYYCAATTRGYKWVGRDYDYWGQGTQVTVSS,high polyreactivity
4,QVQLVESGGGLVQAGGSLRLSCAASGRTFVYNAKGWYRQAPGKEREVVAGITGSGDSTYYADSVKGRFTISRDNAKNTVYLQMNSLKPEDTAVYYCNQLVEEDYWGQGTQVTVSS,low polyreactivity
5,QVQLVESGGGLVQAGGSLRLSCAASGIIFDWYAMGWYRQAPGKERELVAAISYSGGTTYYADSVKGRFTISRDNAKNTVYFQMNSLTPEDTAVYYCAARYEGAAANYVEYGYWGLGTQVTVSS,low polyreactivity
6,QVQLKESGGGQVQAGGSLRLCCAASGKIIPDAGMGWYRQAPGKEREFVAGISRGANTYYADSVKGRFTISRDNAKNTLYLHMYSLKPEDTAVFYCAVNVPWTYQYGYWGQGTQVTVSS,high polyreactivity
7,QVQLVESGGGLVQAGGSLRLSCAASGRTFRRNAMGWYRQAPGKERELVAAINTGGGTYYADSVKGRFTISRDHAKNTVYLQMNSLKPEDTAVYYCNAGTRYGSFSYVKYDWGQGTQVTVSS,high polyreactivity
8,QVQLVESGGGLVQAGGSLRLSCAASGSISGYYAMGWYSQAPVKERELVASIRYTGARTYYADSVKGRFTISRDNAQNTVYLQMNSLKPEDTAVYYCAADVKRDRVWGGDYWGQGTQVTVSS,low polyreactivity
9,QVKLVESGGGLVQAGGSLRLSCPASGFIFYDYVMGWYRQAPGKERELVAAISSNGGSTYYADSVKGRFSISRDNAKYTVYLQMNSLKPEDTAVYYCAAEGKSYPWPWYFDYWGQGTQVTVSS,high polyreactivity
10,QVQLVESGGGLVQAGGSLRLSCAASGRIFGQYAMGWYRQAPGKERELVAAISWRGGTTYYADSVKGRFTISRDNAKNTVYLQMNSLKPEDTAVYYCNADVWVYPYDYWGQGTQVTVSS,low polyreactivity
11,QVQLVESGGGLVQAGGSLRLSCAASGRIFAPYAMGWYRQAPGKERELVAAITSGGSTNYADSVKGRFTISRDNAKNTVYVQMNSLKPEDTAVYYCAAEASYNYGKYVVTYDYWGQGTQVTVSS,high polyreactivity
12,QVQLLESGGGLVQAGGSLRLSCAASGRTFAYNAMAWDRQAPGTERELVADITSGGSTYYADSVKGRFTISRDNAKNTVYLQMNSRKPEDTAVYYCAGYPQFWYWDYNYWGQGTQVTVSS,high polyreactivity
13,QVQLVESGGGLVQAGGSLRLSCAASGFTFGANVMGWYRQAPGKERELVAAINTRGSRTYYADSVKGRFTISRDHAKNTVYLQMNRLKQEDTAVYYCAAALRKEYDYWGQGTQVTVSS,high polyreactivity
14,QVQLVESGGGLVQAGGSLRISCAASGFTFYRYAMGWSIPAPGKERELVAAISSHGDSTYYADSVKGRFTISRDNAKNTVYLQMNSLKPEDTAVYYCNVETLYGYFLHFYLRYYHWGQGTQVTVSS,high polyreactivity
15,QVQLVESGGGLVQAGGSLRLSCAASGSIFVGYAMGWYRQAPGKERELVAAISASGSSTYYADSVKGRFTISRDNAKNTVYLQMNSLKPEDTAVYYCATKRVASSWTYVYWGQGSQVTVSS,high polyreactivity
16,QVQLVESRGGLVQAGGSLRLSCAASGFIITQYAMGWYRQAPGKERELVAAISGRGGSTYYADSVKGRFTISRDNAKNTVYLQMNSLIPEDTAVYYCNTVRIGPPQDYDYWGQGTQVTVSS,high polyreactivity
17,QVQLVDSGGGLVQAGGSLRLSCAASGSIFEINAMGWYRQAPGKERELVAVITDSGSTYYEDSVKGRFTISRDNAKNTVDLQMNSLKPEDTAVYYCAAEYSLLFFLMDYWGQGTQVTVSS,low polyreactivity
18,QVQLVESAGGLVQAGGSLRLSCAASGITYDHYAMGWYRQAPGKERELVARITGTGDSTYYADSVKGRFTISRDNAKNTVYLQMNSLKPEDTAVYYCAAVSYRQYYGWGNYWGLGTQVTVSS,low polyreactivity
19,QGQLVESGGGLVQAGGSLRLSCAASGIIFGGYTMGWYRQAPGKERELVAAITKRTDRTYYADSVKGRFTISRDNAKNTVYLQMHSMKPEDTAVYYCATRGGITRPWYGYDYWGQGTQVTVSS,high polyreactivity
20,QVQLVESGGGLVQAGGSLRLSCAASGSTLDSYAMGSYRQAPGKERELVAAISGSGGSTYYADSVKGRFTISRDNAKNTVYLEMNSLKPEDTAVYYCDTDYSTQTLGYWYDYWGQGTQVSVSS,low polyreactivity

row,Sequence,polyreactivity (PSR sort gate)
1,QVQLVESGGGLVQAGGSLRLSCAASGRIFNDYAMGWYRPAPGKESELVANYADSVKGRFTISRDNAKNTVYLQMNSLKPEDTAVFYCAADFPSFPDFRPEYDYWGQGTQVTVSS,low polyreactivity
2,QVQLVESGGGLVQAGGSLRLSCAASGSIFRSNAMGWYRQPPGKERELVAAITLSGGSTYYADSVKVRFTISRDNAKNTVYLQMNSLKPEDTAVYYCAAAYYLFSIHDYWGQGNQVTVSS,low polyreactivity
3,QVQLVESGGGLVQAGGSLRLSCAASGIIFGTNAMGWYRQAPGKERELVAYITSGGSTYADSVKGRFTISRDKAKNTVYLQMNSLKPEDTAVSYCNADTGKWGGNGWYEFDYWGQGTQVTVSS,low polyreactivity
4,QVQLVESGGGLVQAGGSLRLSCAASGSTFGYNAMGWYRQAPGKERELVADITARGGSTYYADSVKGRFTISRANAKNTVYLQMNSLKPEVTAVYYCAARRKRFYYYAGYDYWGQGTQVTVSS,high polyreactivity
5,QVQLVESGGGLVQAGGSLRLSCAASGLTFYYYAMGWYRQAPGKERELVARISSGTSTYYADSVKGRFTISRDNAKNTVYLQMNSLKPEDTAVYFCNARRKLGSTHGPWGGLVYWGQGTQVTVSS,low polyreactivity
6,QVQLVESGGGLVQAGGSLRLSCAASGLTFQNNARGWYRQAPGKERELVAAISDGGSTYYADSVKGRFTISRDNAKNTVYLQMNSLKPEDTGVYYCNADYGGWDYLYTSDQDNEYGYWGQGTQVTVSS,low polyreactivity
7,QVQLVESGGGLDQAGGSLRLSCAASGSTFVYYAMGWYRQAPGKERELVAAITASGGGTYYADSVKGSFTISRDNAKNTVYLQMNSLKPEDTAVYYCAANDYWYSRGDNQFYYRGQGTQVTVSS,low polyreactivity
8,QVQLVESGGGLVQAGGSLRLSCAASGSTFDFNAMGWSRQAPGKERELVAAITYSGGSTYYADSVKGRFTISRDNAKNTVYLKMNSLKPEDTAVYYCAAEDVYPGSIDMDYWGQGTQVTVSS,low polyreactivity
9,QVQLVESGGGLVQAGGSLRLSCAASGSIFTGNAMGWYRQAPGKERELVASITTSTDSTYYADSVKGRFTISRDNAKNTVYLQMNSLNPEDTAVYYCAAEYAVAWKYGLYFYFHFDYWGQGTQVTVSS,low polyreactivity
10,QVQLVESGGGLVQAGGSLRLSCAASGRTFFVNAMGWYRQAPGKERELVAAITWSGGSTYYADSVKGRFTISRDNAKNTVYLQMNSLKPEDTAVYYCAAEYYSYSYSYYYYGYEYWGQGTQVTVSS,high polyreactivity
11,QVQLVESGGRLFQAGGSLRLSCPASGFTFVYNAMGWYRQAPGKERELVATISSGGGRTYYADSVKGRFTISGDNAKNTVSLQKYSQKPEDTAVYYCATVRRTSSGERHEFWGQGTQVTVSS,low polyreactivity
12,QVQLVESGGGLVQAGGSLRLICAASGSKFSSYCMGWYRQATGQEMELVAAISKRGGSTYYADTVKGRFTISRDNAKNTVYLQMNSLKPEDTAVYYCAAAVSIQGYSTLFDYWGQGTQVTVSS,high polyreactivity
13,QVQLVESGGGLVQAGCSLRLSCAASGSIYLVNAMGWYRQAPGKERELVAAIDWSGDTTYYADSVKGRFTISRDYEKNTVYLQMNRLKPEDTAVYYCAAEYEFHEYDYWGQGTQVTVSS,high polyreactivity
14,QVQLVESGGGLVQAGGSLRLSCAASGRIFGSYAMGWYRQAPGKEREFVAAISVGSGSTYYADSVKGRFTISRDNAKNTVYLQMNSLKPEDTAVYYCAAENLYIDPRDWYGTWDTGYYWGQGTQVTVSS,high polyreactivity
15,QVQLVESGGGLVQAGGSLRLSCAASGSTFGTYAMGWYRQATGKERELVAAISRGVSTYYADSVKGRFTISRDKAKNTVYLEMNSLKPEDTAVYYCAADPFWQTVYVYYTYSGTSYYWGQGTQVTVSS,low polyreactivity
16,QVQLVESGGGLVQAGGSLRLSCAASGGIFYIYAMGWYRQAPGQERELVAAISWRGTSTYYADSVKGRFTISRDNAKNTVYLQMNRLKPEDTAVYYCAADFSYTSYATRYQGDYWGQGTQVTVSS,low polyreactivity
17,QVQLVDSGGGLVQAGGSRRVSCAASAFTFLWNAMGWYRQAPGKEREMVAAINGNSGNTYYADSVKGRFTLSVDNAKNTVYLQMNSMKAEDTAVYYCAKQGNNIPCYRPYGDYYYWGQGTQVTVSS,low polyreactivity
18,QVQLVESGGGLVQAGGSLRLSCAASGFIFGYNAMGWYRKAPGTERELVAAITWIGGTTYYADSVKGRFTISRDNAKNTVYLQMNSLKPEDTAVYYCARQRSYGRSSYSYGYDYWGQGTQVTVSS,high polyreactivity
19,QVQLVESGGGLVQAGGSLRLSCAASGSTFSSYAMGWYRQAPGKERELVAAITSSGGSTYYADSVKGRFTISRDNAKNTVYLQMNSLKPEDTAVYYCAAADVIFWLYYYWGQGTQVTVSS,low polyreactivity
20,QVQLVESGGGLVQAGGSLRLSCAASGRTFYPYAMGWYRQAPGKERELVAAISWNGGRTYYADSVKGRFTISRDNAKNTVYLQMTSLKPEDTAVYYCAADTAYYGFDYWGQGTQVTVSS,low polyreactivity
